Assay results: patent US20220281997A1 (NANJING GENSCRIPT BIOTECH, published 2022)

How the values were obtained:
Experiment in all cases: SPR, Biacore 8K; VHH-His captured on anti-His antibody chip
AS675 VHH = molecular target: T1, AS675 VHH (camel-derived)
T1 construct: One of the 10 different camel-derived nanobodies; not shown: His tag (VHH-His)
Text: (§1) The camel-derived nanobody with the lowest affinity to the cloned antibody was AS587, and the affinity reached 2.2 nmol.

AS200 VHH = molecular target: T2, AS200 VHH (camel-derived)
T2 construct: One of the 10 different camel-derived nanobodies; not shown: His tag (VHH-His)
T2 sequence (VHH, as listed by the source): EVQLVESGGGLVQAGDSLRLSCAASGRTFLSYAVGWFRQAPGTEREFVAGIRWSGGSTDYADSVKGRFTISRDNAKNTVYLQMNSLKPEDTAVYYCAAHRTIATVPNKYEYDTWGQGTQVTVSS
Text: as §1

AS154 VHH = molecular target: T3, AS154 VHH (camel-derived)
T3 construct: One of the 10 different camel-derived nanobodies; not shown: His tag (VHH-His)
T3 sequence (VHH, as listed by the source): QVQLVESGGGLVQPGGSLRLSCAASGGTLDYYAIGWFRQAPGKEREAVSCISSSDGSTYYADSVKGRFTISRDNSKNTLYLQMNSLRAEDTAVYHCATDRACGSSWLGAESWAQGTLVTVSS
Text: as §1

Measured: binding result

T1 sequence (VHH, as listed by the source): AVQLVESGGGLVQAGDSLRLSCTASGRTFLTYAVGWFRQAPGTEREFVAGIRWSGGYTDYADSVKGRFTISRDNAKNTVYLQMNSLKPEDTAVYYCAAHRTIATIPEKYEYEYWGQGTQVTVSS

B1: R166.C5 (antibody, V domains shown)
VH: QSVEESGGRLVTPGTPLTLTCTVSGFSLRNFAMSWVRQAPGKGLEWIGIIYSGGTRDYATWAKGRFTISKTSTTVDLKMTSPTTEDTATYFCARDRSPDYSAAFLLWGQGTLVTVSS
VL: IVMTQTPSSKSVPVGDTVTINCQASESVYSNNHLAWFQQKPGQPPKLLIYSASTLESGVPSRFKGSGSGTQFTLTISGVQCDDAATYYCAGYKSSDTDGTSFGGGTEVVVKG
notes: Rabbit monoclonal; also called clone R166.C5; antibody clone R166.C5
binds: AS675 VHH | AS200 VHH | AS154 VHH
